Experiment [1] addresses T1, N-terminal His-tagged LsrK (E. coli, UniProt P77432 1-530).
T1 sequence (looked up): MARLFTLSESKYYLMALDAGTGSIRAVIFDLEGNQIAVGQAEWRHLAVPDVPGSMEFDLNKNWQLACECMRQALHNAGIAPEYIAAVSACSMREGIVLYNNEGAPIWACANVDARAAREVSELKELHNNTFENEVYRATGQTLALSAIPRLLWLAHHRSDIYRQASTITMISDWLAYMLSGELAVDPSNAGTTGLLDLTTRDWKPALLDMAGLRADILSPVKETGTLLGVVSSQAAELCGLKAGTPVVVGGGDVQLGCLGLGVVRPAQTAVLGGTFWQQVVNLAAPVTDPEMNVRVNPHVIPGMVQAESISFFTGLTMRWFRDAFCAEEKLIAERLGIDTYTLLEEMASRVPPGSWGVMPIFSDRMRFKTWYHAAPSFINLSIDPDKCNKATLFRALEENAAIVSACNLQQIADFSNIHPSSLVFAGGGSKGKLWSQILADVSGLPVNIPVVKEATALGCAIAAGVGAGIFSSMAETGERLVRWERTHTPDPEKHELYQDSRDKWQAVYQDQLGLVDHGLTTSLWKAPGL
Nature of the experiment: enzyme inhibition kinetics.

The target in experiment [2] is T1, N-terminal His-tagged LsrK. Put plainly: enzyme inhibition kinetics. This is another data set of the same source.

Data on three molecules can be found in PMC5983913 (Science Advances, 2018).

Read-outs that look alike come from different tables or passages of the source.

By Ki is commonly meant the equilibrium dissociation constant of an inhibitor or competing ligand from its target. Low readings indicate a stronger hold on the target, high ones a looser hold on the target.

B1: phosphorylated HPr (natural protein)
chain: not shown
modifications: phosphate group at the H15-ND1 atom (phosphohistidine 15); ^15N-labelled
As for B1, the affinity in experiment [1], expressed as Ki, was 8.4 ± 0.5 µM.

B2: C-terminal six-His-tagged HPr H15E (natural protein)
chain: not shown
For the molecule B2, in experiment [2], the Ki came out at 1.2 ± 0.2 µM and the “fold lower inhibition activity than WT HPr” value is about 5 fold.

B3: native HPr protein (expressed alone, intact form) (natural protein)
chain: not shown
On to B3, for which the Ki in experiment [1] is 0.32 ± 0.07 µM.
